Source: the supplement of paper PMC9732359
± gives the uncertainty stated by the source.

Assay: protein stability index of a GFP-peptide fusion (yeast GPS) (PSI 1-4); higher = more stable; sorted into four equal gates, so the index is relative within each strain
Outline: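 Plasmids isolated from each sorting gate were PCR-amplified and Illumina-sequenced, and barcodes assigned the reads to strains. The gates, four of equal size, were set by GFP/Cherry fluorescence ratio on mid-log cultures in leucine-free medium. These cultures were yeast carrying a pooled library of tiled 17-residue yeast protein peptides fused downstream of GFP on a plasmid that also expresses Cherry. The protein stability index is the sum of every gate's read frequency times its gate number.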

## HFIQKLHTARKILVLTG [SIR2]
doa10∆
  protein stability index: 1.74 ± 0.14
pdr5∆
  protein stability index: 2.36 ± 0.16
san1∆
  protein stability index: 1.1 ± 0.15
ubr1∆
  protein stability index: 1.66 ± 0.21

## QILIFAADTSIVEQDKS [YJL039C/NUP192]
doa10∆
  protein stability index: 2.04 ± 0.13
pdr5∆
  protein stability index: 2.44 ± 0.21
san1∆
  protein stability index: 2.45 ± 0.18
ubr1∆
  protein stability index: 2.54 ± 0.25

## KSTTPYVSALKRINKFL [POP7]
doa10∆
  protein stability index: 2.04 ± 0.047
pdr5∆
  protein stability index: 1.55 ± 0.036
san1∆
  protein stability index: 2 ± 0.067
ubr1∆
  protein stability index: 1.63 ± 0.034

## KEKIKNNRQLPYLVANV [RPT5]
doa10∆
  protein stability index: 2.78 ± 0.1
pdr5∆
  protein stability index: 3.1 ± 0.095
san1∆
  protein stability index: 3.11 ± 0.096
ubr1∆
  protein stability index: 2.64 ± 0.081

## QGEEEELIALNLSEARL [RPB4]
doa10∆
  protein stability index: 3.22 ± 0.12
pdr5∆
  protein stability index: 3.53 ± 0.14
san1∆
  protein stability index: 3.22 ± 0.078
ubr1∆
  protein stability index: 3.26 ± 0.095

## KTMKTFVIHIQEKNFQT [RPB5]
doa10∆
  protein stability index: 2.05 ± 0.091
pdr5∆
  protein stability index: 1.85 ± 0.072
san1∆
  protein stability index: 1.88 ± 0.14
ubr1∆
  protein stability index: 2.56 ± 0.088

## VQLLSKSHNAHVRCGTA [RPN2]
doa10∆
  protein stability index: 1.44 ± 0.071
pdr5∆
  protein stability index: 1.5 ± 0.042
san1∆
  protein stability index: 1.57 ± 0.08
ubr1∆
  protein stability index: 1.72 ± 0.048

## GKLKRCSRCGSVTRAGN [SIN4]
ubr1∆
  protein stability index: 3.34 ± 0.16

## LKDSKDFDESLKYLDDL [RPN9]
doa10∆
  protein stability index: 3.02 ± 0.21
pdr5∆
  protein stability index: 3.21 ± 0.14
ubr1∆
  protein stability index: 2.86 ± 0.17

## KYYIVSSSKSMINDENY [SRB8]
doa10∆
  protein stability index: 2.91 ± 0.073
pdr5∆
  protein stability index: 2.76 ± 0.056
san1∆
  protein stability index: 2.43 ± 0.083
ubr1∆
  protein stability index: 2.81 ± 0.04

## DFIGHNSNINTLTASPD [ASC1]
doa10∆
  protein stability index: 2.83 ± 0.075
pdr5∆
  protein stability index: 2.87 ± 0.052
san1∆
  protein stability index: 2.87 ± 0.068
ubr1∆
  protein stability index: 2.96 ± 0.039

## RYRLLSDVSDFEGWGHE [RPN1]
doa10∆
  protein stability index: 2.63 ± 0.12
pdr5∆
  protein stability index: 3.35 ± 0.1
san1∆
  protein stability index: 3.07 ± 0.09
ubr1∆
  protein stability index: 2.83 ± 0.12

## RVTGGMKVKADRDESSP [RPS14A]
doa10∆
  protein stability index: 3.31 ± 0.077
pdr5∆
  protein stability index: 3.24 ± 0.063
san1∆
  protein stability index: 3.28 ± 0.038
ubr1∆
  protein stability index: 3.26 ± 0.05

## SPNPTLQPVIPGGAASK [SNF5]
doa10∆
  protein stability index: 3.23 ± 0.093
pdr5∆
  protein stability index: 3.24 ± 0.082
san1∆
  protein stability index: 3.19 ± 0.058
ubr1∆
  protein stability index: 2.88 ± 0.059

## LKGKINNEMKSLQRSKS [SMC1]
pdr5∆
  protein stability index: 3.34 ± 0.19
san1∆
  protein stability index: 3.11 ± 0.2
ubr1∆
  protein stability index: 3.44 ± 0.099

## LAYAVLGIALIALGEDI [RPN1]
doa10∆
  protein stability index: 1.73 ± 0.094
pdr5∆
  protein stability index: 1.72 ± 0.094
san1∆
  protein stability index: 1.98 ± 0.11
ubr1∆
  protein stability index: 2.33 ± 0.06

## TETSNEDEDEDDETPSC [SNU114]
doa10∆
  protein stability index: 2.68 ± 0.067
pdr5∆
  protein stability index: 2.75 ± 0.058
san1∆
  protein stability index: 3.02 ± 0.055
ubr1∆
  protein stability index: 2.74 ± 0.046

## SEYDRGVSTFSPEGRLF [PUP2]
doa10∆
  protein stability index: 3.43 ± 0.1
pdr5∆
  protein stability index: 3.28 ± 0.1
san1∆
  protein stability index: 3.32 ± 0.096
ubr1∆
  protein stability index: 3.31 ± 0.065

## PSRQFDHYESNQLVAKL [SRB8]
doa10∆
  protein stability index: 3.02 ± 0.061
pdr5∆
  protein stability index: 2.85 ± 0.064
san1∆
  protein stability index: 2.98 ± 0.064
ubr1∆
  protein stability index: 3.17 ± 0.041

## TIQSDLNLSLHKLDLAK [SMC2]
doa10∆
  protein stability index: 2.81 ± 0.049
pdr5∆
  protein stability index: 2.79 ± 0.035
san1∆
  protein stability index: 3.01 ± 0.038
ubr1∆
  protein stability index: 2.828 ± 0.028

## EDVLSSFYRVEKIKKIN [SSN2]
doa10∆
  protein stability index: 1.7 ± 0.28
pdr5∆
  protein stability index: 1.13 ± 0.074
san1∆
  protein stability index: 1.24 ± 0.28
ubr1∆
  protein stability index: 1.16 ± 0.089

## QKVFVRSRNGGATKIVR [DIS3]
doa10∆
  protein stability index: 2.33 ± 0.085
pdr5∆
  protein stability index: 1.59 ± 0.11
san1∆
  protein stability index: 2.88 ± 0.1
ubr1∆
  protein stability index: 2.45 ± 0.21

## PRALQPSQFGMLCTADT [RET1]
doa10∆
  protein stability index: 1.87 ± 0.1
pdr5∆
  protein stability index: 1.57 ± 0.05
san1∆
  protein stability index: 2.02 ± 0.13
ubr1∆
  protein stability index: 2.18 ± 0.051

## NTENVESVPTPANAEPQ [ITC1]
doa10∆
  protein stability index: 3.11 ± 0.087
pdr5∆
  protein stability index: 3 ± 0.086
san1∆
  protein stability index: 2.96 ± 0.1
ubr1∆
  protein stability index: 3.22 ± 0.12

## GQSSSIQSSLMTNLTYF [YCS4]
doa10∆
  protein stability index: 2.86 ± 0.095
pdr5∆
  protein stability index: 2.74 ± 0.071
san1∆
  protein stability index: 2.56 ± 0.086
ubr1∆
  protein stability index: 2.95 ± 0.065

## EALNLLKFFLVDENETV [LIN1]
doa10∆
  protein stability index: 1.52 ± 0.06
pdr5∆
  protein stability index: 1.52 ± 0.043
san1∆
  protein stability index: 1.4 ± 0.12
ubr1∆
  protein stability index: 1.14 ± 0.054
